Test results reported in US7285703B2, “Plant like starches and the method of making them in hosts” (BASF Plant Science GmbH, priority 1998, dated 2007).

Tests used:
maize starch synthases = test: Expression of maize starch synthases in Escherichia coli BL21 (DE3): specific activity; type: biochemical; conditions: 25° C., 5 mg/mL glycogen as primer
[1] = substrate: Nc1ncnc2c1ncn2[C@@H]1O[C@H](COP(=O)(O)OP(=O)(O)O[C@H]2O[C@H](CO)[C@@H](O)[C@H](O)[C@H]2O)[C@@H](O)[C@H]1O; test: ADPGlc kinetics of starch synthase SSIIa-1; type: biochemical, maize; conditions: other: amylopectin as primer, −citrate, 27° C.
Description: FIG. 59. SSIIa-1 and SSIIa-2 construct diagram. Two forms of SSIIa were constructed in the pET expression system. pExs3c encodes SSIIa-1, the putative full length maize SSIIa which has the N-terminal sequence AEAEAGGK (SEQ ID NO:68). […] A depiction of the waxy gene, encoding GBSS which has the N-terminal sequence ASAGMNVV (SEQ ID NO:67), is also included for comparison. The amino acid motif KTGGL (SEQ ID NO:10), the putative binding site for ADPGlc, is indicated by the triangles. The KTGGL (SEQ ID NO:10) motif is located 18 amino acids from the N-terminus in GBSS, while the motif is 194 amino acids from the N-terminus in maize SSIIa.
5 mL of supernatant were used to assay STS and SBE activities as previously described (Preiss) with minor modification. […] […] The unincorporated [^14C]-ADPGlc was separated with Dowex anion exchange column (200-400 mesh, Sigma Chemical Co.). One unit of activity is defined as 1 nmol Glc incorporated into the a-glucan per min at 25° C. SBE activity was determined by phosphorylase stimulation assay. One unit of activity is defined as 1 mmol Glc incorporated into the a-glucan per min at. 30° C. […]

Molecule | Specific Activities (maize starch synthases) [units/mg Protein] | Km [1] [µM]
pEXS-wx: maize GBSS (waxy), N-terminus ASAGMNVVFV, expressed from this plasmid in E. coli BL21 (DE3) (protein, UniProt P04713 73-605, looked up, expressed in E. coli) Granule-bound starch synthase …: ASAGMNVVFVGAEMAPWSKTGGLGDVLGGLPPAMAANGHRVMVVSPRYDQYKDAWDTSVVSEIKMGDGYETVRFFHCYKRGVDRVFVDHPLFLERVWGKTEEKIYGPVAGTDYRDNQLRFSLLCQAALEAPRILSLNNNPYFSGPYGEDVVFVCNDWHTGPLSCYLKSNYQSHGIYRDAKTAFCIHNISYQGRFAFSDYPELNLPERFKSSFDFIDGYEKPVEGRKINWMKAGILEADRVLTVSPYYAEELISGIARGCELDNIMRLTGITGIVNGMDVSEWDPSRDKYIAVKYDVSTAVEAKALNKEALQAEVGLPVDRNIPLVAFIGRLEEQKGPDVMAAAIPQLMEMVEDVQIVLLGTGKKKFERMLMSAEEKFPGKVRAVVKFNAALAHHIMAGADVLAVTSRFEPCGLIQLQGMRYGTPCACASTGGLVDTIIEGKTGFHMGRLSVDCNVVEPADVKKVATTLQRAIKVVGTPAYEEMVRNCMIQDLSWKGPAKNWENVLLSLGVAGGEPGVEGEEIAPLAKENVAAP | 0.033 | 
maize starch synthase SSIIa-1, putative full length SSIIa (669 amino acids), N-terminus AEAEAGGK (SEQ ID NO:68) (Zea mays) (protein) AEAEAGGKDAPPERSGDAARLPRARRNAVSKRRDPLQPVGRYGSATGNTARTGAASCQNAALADVEIVEIKSIVAAPPTSIVKFPGRGLQDDPSLWDIAPETVLPAPKPLHESPAVDGDSNGIAPPTVEPLVQEATWDFKKYIGFDEPDEAKDDSRVGADDAGSFEHYGTMILGLCGENVMNVIVVAAECSPWCKTGGLGDVVGALPKALARRGHRVMVVVPRYGDYVEAFDMGIRKYYKAAGQDLEVNYFHAFIDGVDFVFIDASFRHRQDDIYGGSRQEIMKRMILFCKVAVEVPWHVPCGGVCYGDGNLVFIAMNWHTALLPVYLKAYYRDHGLMQYTRSVLVIHNIGHQGRGPVHEFPYMDLLNTNLQHFELYDPVGGEHANIFAACVLKMADRVVTVSRGYLWELKTVEGGWGLHDIIRSNDWKINGIRERIDHQEWNPKVDVHLRSDGYTNYSLETLDAGKRQCKAALQRDVGLEVRDDVPLLGFIGRLDGQKGVDIIGDAMPWIAGQDVQLVMLGTGPPDLERMLQHLEREHPNKVRGWVGFSVLMVHRITPGASVLVMPSRFAGGLNQLYAMAYGTVPVVHAVGGLRDTVAPFDPFGDAGLGWTFDRAEANKLIEVLSHCLDTYRNYEESWKSLQARGMSQNLSWDHAAELYEDVLVKYQW |  | 460 ± 60
